Blank lines part the entries; values can stand above or below the molecule they belong to.
What was measured:
[1] = biological target: FBXO44 (F-box only protein 44) (UniProt Q9H4M3); assay: co-IP with anti-Flag, Western blot; settings: reference: Myc-FOXP1 wild type with His-AURKA; sites S440
[2] = biological target: T1, Purified Myc-FOXP1 (UniProt Q9H334 1-677); assay: pull-down; GST-FBXO44 coupled to glutathione-Sepharose beads incubated with purified Myc-FOXP1; retained proteins analysed by immunoblot; settings: both partners purified
T1 construct: Forkhead box protein P1 (FOXP1), Myc-tagged, purified for the GST pull-down; source: purified
T1 sequence (looked up): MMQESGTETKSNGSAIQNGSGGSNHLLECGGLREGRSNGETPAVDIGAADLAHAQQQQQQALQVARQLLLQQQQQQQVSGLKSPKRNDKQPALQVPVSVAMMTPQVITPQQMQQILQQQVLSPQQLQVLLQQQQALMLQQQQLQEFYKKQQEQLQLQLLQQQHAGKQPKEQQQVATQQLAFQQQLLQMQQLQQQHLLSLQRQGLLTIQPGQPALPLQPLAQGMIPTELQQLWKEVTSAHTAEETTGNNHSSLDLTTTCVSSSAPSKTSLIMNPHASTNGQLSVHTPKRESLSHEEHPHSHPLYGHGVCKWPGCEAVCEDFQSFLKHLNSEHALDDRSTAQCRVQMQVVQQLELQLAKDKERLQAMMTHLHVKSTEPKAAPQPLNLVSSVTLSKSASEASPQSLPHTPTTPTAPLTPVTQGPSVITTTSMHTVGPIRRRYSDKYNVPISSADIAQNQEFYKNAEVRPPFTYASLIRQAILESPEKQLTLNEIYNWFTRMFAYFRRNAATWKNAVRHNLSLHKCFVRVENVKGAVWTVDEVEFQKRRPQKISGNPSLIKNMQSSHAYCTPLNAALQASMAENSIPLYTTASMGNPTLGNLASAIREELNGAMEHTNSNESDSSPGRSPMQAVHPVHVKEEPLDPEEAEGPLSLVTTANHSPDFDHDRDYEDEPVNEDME

binding against the reference [1]: weaker
Molecule: FOXP1 (Forkhead box protein P1) (from UniProt Q9H334) Myc-FOXP1 S440A with His-AURKA

binding result [2]: binds
B1: Recombinant GST-FBXO44 (natural protein, UniProt Q9H4M3 1-255, looked up)
chain: MAVGNINELPENILLELFTHVPARQLLLNCRLVCSLWRDLIDLVTLWKRKCLREGFITEDWDQPVADWKIFYFLRSLHRNLLHNPCAEEGFEFWSLDVNGGDEWKVEDLSRDQRKEFPNDQVKKYFVTSYYTCLKSQVVDLKAEGYWEELMDTTRPDIEVKDWFAARPDCGSKYQLCVQLLSSAHAPLGTFQPDPATIQQKSDAKWREVSHTFSNYPPGVRYIWFQHGGVDTHYWAGWYGPRVTNSSITIGPPLP
notes: F-box only protein 44 (FBXO44) fused to GST; source: purified from bacteria

Source: publication PMC12713037, “FBXO44 Regulates FOXP1 Degradation Through AURKA‐Dependent Phosphorylation to Promote Colorectal Cancer Progression” (Advanced Science, 2025)
